Measured values from patent US20240391954A1, “MC4R AGONIST PEPTIDES” (The Regents of the University of Michigan, priority 2021, published 2024).
Starred links: 1 amine or outer side, 2 acyl side, 3 side chain; linkers in the order of their positions; H or OH if unused. Positions of bridges follow the written chain, without caps; N, C: chain ends. Non-standard residues stand in square brackets, D forms with d. Primed or numbered codes have the meaning given here. dTyr(4-OMe)″ = O-methyl-D-tyrosine, COc1ccc(C[C@@H](N[*:1])C(=O)[*:2])cc1; hCit = NC(=O)NCCCC[C@H](N)C(=O)O; 2Pal = N[C@@H](Cc1ccccn1)C(=O)O; Cit = NC(=O)NCCC[C@H](N)C(=O)O; Nle = CCCC[C@H](N)C(=O)O; Orn = NCCC[C@H](N)C(=O)O; Aib = CC(C)(N)C(=O)O

B1: CTX-1604 (peptide)
peptide: Ac-RC[Aib][2Pal][dF]RFC-NH2
modifications: disulfide 2-8
SMILES: CC(=O)N[C@@H](CCCNC(=N)N)C(=O)N[C@H]1CSSC[C@@H](C(N)=O)NC(=O)[C@H](Cc2ccccc2)NC(=O)[C@H](CCCNC(=N)N)NC(=O)[C@@H](Cc2ccccc2)NC(=O)[C@H](Cc2ccccn2)NC(=O)C(C)(C)NC1=O
B2: CTX-1637 (peptide)
peptide: Ac-CGH[dF]RFC-NH2
modifications: disulfide 1-7
SMILES: CC(=O)N[C@H]1CSSC[C@@H](C(N)=O)NC(=O)[C@H](Cc2ccccc2)NC(=O)[C@H](CCCNC(=N)N)NC(=O)[C@@H](Cc2ccccc2)NC(=O)[C@H](Cc2c[nH]cn2)NC(=O)CNC1=O
B3: CTX-1293 (peptide)
peptide: Ac-RCGR[dF]RWC-NH2
modifications: disulfide 2-8
SMILES: CC(=O)N[C@@H](CCCNC(=N)N)C(=O)N[C@H]1CSSC[C@@H](C(N)=O)NC(=O)[C@H](Cc2c[nH]c3ccccc23)NC(=O)[C@H](CCCNC(=N)N)NC(=O)[C@@H](Cc2ccccc2)NC(=O)[C@H](CCCNC(=N)N)NC(=O)CNC1=O
B4: CTX-1206 (peptide)
peptide: Ac-CGH[dF]RWC-NH2
modifications: disulfide 1-7
SMILES: CC(=O)N[C@H]1CSSC[C@@H](C(N)=O)NC(=O)[C@H](Cc2c[nH]c3ccccc23)NC(=O)[C@H](CCCNC(=N)N)NC(=O)[C@@H](Cc2ccccc2)NC(=O)[C@H](Cc2c[nH]cn2)NC(=O)CNC1=O
B5: CTX-1602 (peptide)
peptide: Ac-RC[Aib][Orn][dF]RFC-NH2
modifications: disulfide 2-8
SMILES: CC(=O)N[C@@H](CCCNC(=N)N)C(=O)N[C@H]1CSSC[C@@H](C(N)=O)NC(=O)[C@H](Cc2ccccc2)NC(=O)[C@H](CCCNC(=N)N)NC(=O)[C@@H](Cc2ccccc2)NC(=O)[C@H](CCCN)NC(=O)C(C)(C)NC1=O
B6: CTX-1607 (peptide)
peptide: Ac-R[Nle]C[Cit][dF]RWC-NH2
modifications: disulfide 3-8
SMILES: CCCC[C@H](NC(=O)[C@H](CCCNC(=N)N)NC(C)=O)C(=O)N[C@H]1CSSC[C@@H](C(N)=O)NC(=O)[C@H](Cc2c[nH]c3ccccc23)NC(=O)[C@H](CCCNC(=N)N)NC(=O)[C@@H](Cc2ccccc2)NC(=O)[C@H](CCCNC(N)=O)NC1=O
B7: CTX-1257 (peptide)
peptide: Ac-RC[dA]R[dF]R[dF]C-NH2
modifications: disulfide 2-8
SMILES: CC(=O)N[C@@H](CCCNC(=N)N)C(=O)N[C@H]1CSSC[C@@H](C(N)=O)NC(=O)[C@@H](Cc2ccccc2)NC(=O)[C@H](CCCNC(=N)N)NC(=O)[C@@H](Cc2ccccc2)NC(=O)[C@H](CCCNC(=N)N)NC(=O)[C@@H](C)NC1=O
B8: CTX-1618 (peptide)
peptide: Ac-R[Nle]C[hCit][dF]RWC-NH2
modifications: disulfide 3-8
SMILES: CCCC[C@H](NC(=O)[C@H](CCCNC(=N)N)NC(C)=O)C(=O)N[C@H]1CSSC[C@@H](C(N)=O)NC(=O)[C@H](Cc2c[nH]c3ccccc23)NC(=O)[C@H](CCCNC(=N)N)NC(=O)[C@@H](Cc2ccccc2)NC(=O)[C@H](CCCCNC(N)=O)NC1=O
B9: CTX-1202 (peptide)
peptide: {CH2CO}-[dA]H[dF]RWC-NH2
modifications: thioether N-6
SMILES: C[C@H]1NC(=O)CSC[C@@H](C(N)=O)NC(=O)[C@H](Cc2c[nH]c3ccccc23)NC(=O)[C@H](CCCNC(=N)N)NC(=O)[C@@H](Cc2ccccc2)NC(=O)[C@H](Cc2c[nH]cn2)NC1=O
B10: CTX-1625 (peptide)
peptide: Ac-R[Nle]CH[dF]RFC-NH2
modifications: disulfide 3-8
SMILES: CCCC[C@H](NC(=O)[C@H](CCCNC(=N)N)NC(C)=O)C(=O)N[C@H]1CSSC[C@@H](C(N)=O)NC(=O)[C@H](Cc2ccccc2)NC(=O)[C@H](CCCNC(=N)N)NC(=O)[C@@H](Cc2ccccc2)NC(=O)[C@H](Cc2c[nH]cn2)NC1=O

Experiments:
Assay in all cases: cell-based or functional assay
human MC3R = human MC3R (human, UniProt P41968 1-323)
human MC3R, sequence (P41968 whole entry): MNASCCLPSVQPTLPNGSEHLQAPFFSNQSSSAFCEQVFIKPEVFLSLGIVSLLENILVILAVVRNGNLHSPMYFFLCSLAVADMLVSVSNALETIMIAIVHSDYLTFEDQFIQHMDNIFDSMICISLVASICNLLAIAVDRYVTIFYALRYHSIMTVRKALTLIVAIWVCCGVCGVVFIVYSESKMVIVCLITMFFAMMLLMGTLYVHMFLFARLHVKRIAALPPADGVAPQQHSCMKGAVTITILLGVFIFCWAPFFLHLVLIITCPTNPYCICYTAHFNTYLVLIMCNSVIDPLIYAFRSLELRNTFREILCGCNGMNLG

human MC4R receptor [1] = biological target: T1, human MC4R receptor (human, UniProt P32245 1-332)
T1 sequence (P32245 whole entry): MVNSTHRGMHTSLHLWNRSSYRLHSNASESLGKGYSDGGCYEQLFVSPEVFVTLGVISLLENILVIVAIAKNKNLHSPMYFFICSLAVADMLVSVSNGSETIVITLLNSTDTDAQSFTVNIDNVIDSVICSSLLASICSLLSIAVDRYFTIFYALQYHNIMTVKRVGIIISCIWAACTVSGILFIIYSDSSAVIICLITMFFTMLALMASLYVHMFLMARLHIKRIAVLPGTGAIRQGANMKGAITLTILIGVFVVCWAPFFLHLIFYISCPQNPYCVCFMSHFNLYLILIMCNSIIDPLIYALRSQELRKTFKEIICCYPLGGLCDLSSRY

human MC4R receptor [2] = biological target: T1, human MC4R receptor; remark: listed apart in the source

Binder | % max activation (human MC3R) [%] | cAMP EC50 (human MC3R) [nM] | % max activation (human MC4R receptor [1]) [%] | cAMP EC50 (human MC4R receptor [1]) [nM] | MC4R selectivity vs MC1R (human MC4R receptor [2]) | MC4R selectivity vs MC3R (human MC4R receptor [2])
Ac-RCA[Cit][dF]R[dW]C-NH2 (disulfide 2-8) [CTX-1288] | 36 | 1250 | 87 | 77 | 3.75 | 16
Ac-RCG[Cit][dF]RWC-NH2 (disulfide 2-8) [CTX-1294] | 33 | 40 | 102 | 3.5 | 111 | 11
B1 | 12 | 167 | 96 | 1520 | 3.66 | 0.11
B2 | 98 | 68 | – | – | – | –
B3 | – | – | 87 | 0.25 | – | –
{CH2CO}-[dA][Cit][dF]RFC-NH2 (thioether N-6) [CTX-1658] | – | > 10000 | – | > 10000 | – | –
B4 | 94 | 12 | 101 | – | – | 23
Ac-RC[Aib]R[dTyr(4-OMe)″]RFC-NH2 (disulfide 2-8) [CTX-1298] | – | > 10000 | 93 | 3.3 | 0.12 | 0.93
B5 | 80 | 251 | 97 | 73 | 3.65 | 3.44
Ac-RC[Aib]R[dF]RFC-NH2 (disulfide 2-8) [CTX-1601] | 73 | 26 | 97 | 11 | 0.93 | 2.3
B6 | 47 | 14 | – | – | – | –
B7 | – | 44 | – | – | 0.02 | –
B8 | 33 | 29 | – | – | – | –
Ac-RC[Aib][Cit][dF]R[dW]C-NH2 (disulfide 2-8) [CTX-1290] | 20 | 1040 | 88 | 112 | 10 | 9.23
{CH2CO}-G[Cit][dF]RFC-NH2 (thioether N-6) [CTX-1655] | – | > 10000 | – | > 10000 | – | –
{CH2CO}-[Aib][Cit][dF]RFC-NH2 (thioether N-6) [CTX-1652] | – | > 10000 | – | > 10000 | – | –
B9 | 101 | 130 | 104 | 0.65 | 0.89 | –
Ac-RC[Aib][Cit][dF]RWC-NH2 (disulfide 2-8) [CTX-1289] | 21 | 17 | 93 | 0.6 | 130 | 30
Ac-RC[Aib]R[dTyr(4-OMe)″]R[dW]C-NH2 (disulfide 2-8) [CTX-1297] | – | > 10000 | 97 | 3.3 | 0.52 | > 3000
Ac-RC[Aib]R[dF]RWC-NH2 (disulfide 2-8) [CTX-1292] | 76 | 3.3 | 90 | 0.16 | 2.46 | 21
Ac-RC[Aib][Cit][dTyr(4-OMe)″]RFC-NH2 (disulfide 2-8) [CTX-1299] | – | > 10000 | 78 | 65 | 3.66 | > 154
B10 | – | – | 101 | 38 | – | –
